Source: article PMC13376610, “Nanobody-mediated control of long RSH Rel and RelA catalysis by restriction of their conformational landscape” (Nature Communications, 2026)
Like-named read-outs stand apart in the source and are kept apart here.

Assays:
RelCt^NTD = molecular target: T1, RelCt^NTD (Chlorobaculum tepidum, UniProt Q8KC80); assay: ITC; assay type: binding; conditions: 15 °C, pH 7.5, 10 mM MgCl2, no nanobody; SYNTH active site; non-hydrolysable ATP analogue; also crystal structure with GDP (2.65 Å)
T1 construct: gene relA; N-terminal catalytic region (HD + SYNTH domains), C-terminal regulatory domains removed; N-terminal His-TEV tag cleaved; recombinant, gene from GenScript
T1 sequence (Q8KC80 1-390 limits assumed): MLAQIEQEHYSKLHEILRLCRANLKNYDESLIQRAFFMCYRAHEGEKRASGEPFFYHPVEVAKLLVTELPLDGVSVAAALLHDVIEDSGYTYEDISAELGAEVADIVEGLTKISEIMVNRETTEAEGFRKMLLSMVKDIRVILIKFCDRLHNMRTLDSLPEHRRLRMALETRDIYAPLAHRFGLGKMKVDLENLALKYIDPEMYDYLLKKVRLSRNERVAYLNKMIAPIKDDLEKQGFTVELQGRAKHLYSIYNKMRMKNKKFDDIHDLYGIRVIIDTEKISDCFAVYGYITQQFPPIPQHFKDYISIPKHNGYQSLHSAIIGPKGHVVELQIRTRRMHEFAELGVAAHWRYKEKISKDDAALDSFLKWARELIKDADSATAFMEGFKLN

[1] = molecular target: T2, full-length Rel from Chlorobaculum tepidum (Chlorobaculum tepidum TLS, UniProt Q8KC80); assay: cell-based or functional assay
[2] = molecular target: T2, full-length Rel from Chlorobaculum …; assay: ITC; nanobody titrated into the RSH enzyme in the cell; Affinity-ITC, 15 °C, 2 μL injections, stirring 75 r.p.m., triplicate; mean KD ± SD; conditions: both partners purified
[3] = molecular target: T3, RelCt^NTD, N-terminal catalytic region of C. tepidum Rel (Chlorobaculum tepidum TLS); assay: HDX-MS; RelCt^NTD alone against its complex with the nanobody, 50 to 70 μM; labelling 0.5, 5 or 60 min at 20 °C in 50 mM HEPES, 500 mM KCl, 500 mM NaCl, 2 mM MgCl2, 1 mM TCEP, 0.002% mellitic acid (pD 7.5); triplicate; conditions: both partners purified
T3 construct: Rel, Chlorobaculum tepidum, N-terminal catalytic region (HD and SYNTH domains); His-TEV tag removed with TEV protease; source: recombinant, purified (HisTrap, SEC, TEV cleavage, reverse IMAC, SEC); construct generated by GenScript; not shown: His tag, N-terminal, cleaved
T3 chain: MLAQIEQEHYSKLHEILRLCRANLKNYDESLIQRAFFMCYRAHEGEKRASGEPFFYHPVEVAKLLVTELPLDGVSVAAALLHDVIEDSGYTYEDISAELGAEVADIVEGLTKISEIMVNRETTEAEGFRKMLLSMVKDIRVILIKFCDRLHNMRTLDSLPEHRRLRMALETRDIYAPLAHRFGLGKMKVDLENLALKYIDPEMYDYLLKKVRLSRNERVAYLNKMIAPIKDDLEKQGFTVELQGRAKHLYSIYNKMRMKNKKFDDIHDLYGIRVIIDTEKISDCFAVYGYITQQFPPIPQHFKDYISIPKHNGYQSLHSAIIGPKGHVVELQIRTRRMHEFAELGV

[4] = molecular target: RelCt^R215E (Chlorobaculum tepidum); assay: ITC; nanobody titrated into the RSH enzyme in the cell; Affinity-ITC, 15 °C, 2 μL injections, stirring 75 r.p.m., triplicate; mean KD ± SD
[5] = molecular target: T4, RelCt^NTD, N-terminal catalytic region of C. tepidum Rel (Chlorobaculum tepidum); assay: ITC
T4 chain: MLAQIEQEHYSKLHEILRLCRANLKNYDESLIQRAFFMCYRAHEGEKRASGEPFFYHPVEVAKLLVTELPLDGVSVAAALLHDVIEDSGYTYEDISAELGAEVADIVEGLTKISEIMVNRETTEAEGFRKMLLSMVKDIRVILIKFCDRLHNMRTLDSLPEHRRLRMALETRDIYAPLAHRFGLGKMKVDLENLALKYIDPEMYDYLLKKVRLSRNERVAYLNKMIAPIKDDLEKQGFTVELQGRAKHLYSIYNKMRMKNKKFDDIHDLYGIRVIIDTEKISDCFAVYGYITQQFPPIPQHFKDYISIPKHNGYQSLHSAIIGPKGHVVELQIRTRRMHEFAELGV

RelCt^K280A = molecular target: T5, RelCt^K280A (Chlorobaculum tepidum); assay: ITC
T5 chain: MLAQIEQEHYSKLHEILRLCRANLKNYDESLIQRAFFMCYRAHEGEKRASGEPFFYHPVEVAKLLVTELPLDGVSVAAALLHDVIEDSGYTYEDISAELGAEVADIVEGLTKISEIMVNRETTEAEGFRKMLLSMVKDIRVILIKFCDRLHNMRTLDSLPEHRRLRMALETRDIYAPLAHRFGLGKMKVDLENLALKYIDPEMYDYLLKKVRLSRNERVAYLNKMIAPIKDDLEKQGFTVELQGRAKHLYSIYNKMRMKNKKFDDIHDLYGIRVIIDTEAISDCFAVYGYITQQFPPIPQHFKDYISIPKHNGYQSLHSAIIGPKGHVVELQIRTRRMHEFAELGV

RelCt^D283A [6] = molecular target: T6, RelCt^D283A (Chlorobaculum tepidum); assay: ITC
T6 chain: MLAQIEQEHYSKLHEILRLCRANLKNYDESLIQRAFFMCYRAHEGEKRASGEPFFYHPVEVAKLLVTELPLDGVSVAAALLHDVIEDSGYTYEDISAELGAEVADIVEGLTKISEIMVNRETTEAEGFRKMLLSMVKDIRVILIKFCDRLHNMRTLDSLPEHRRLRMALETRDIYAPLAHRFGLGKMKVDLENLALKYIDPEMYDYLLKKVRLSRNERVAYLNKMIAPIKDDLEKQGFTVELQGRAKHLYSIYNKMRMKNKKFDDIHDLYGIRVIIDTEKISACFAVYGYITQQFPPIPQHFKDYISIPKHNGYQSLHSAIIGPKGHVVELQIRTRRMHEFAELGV

RelCt^A286K = molecular target: T7, RelCt^A286K (Chlorobaculum tepidum); assay: ITC
T7 chain: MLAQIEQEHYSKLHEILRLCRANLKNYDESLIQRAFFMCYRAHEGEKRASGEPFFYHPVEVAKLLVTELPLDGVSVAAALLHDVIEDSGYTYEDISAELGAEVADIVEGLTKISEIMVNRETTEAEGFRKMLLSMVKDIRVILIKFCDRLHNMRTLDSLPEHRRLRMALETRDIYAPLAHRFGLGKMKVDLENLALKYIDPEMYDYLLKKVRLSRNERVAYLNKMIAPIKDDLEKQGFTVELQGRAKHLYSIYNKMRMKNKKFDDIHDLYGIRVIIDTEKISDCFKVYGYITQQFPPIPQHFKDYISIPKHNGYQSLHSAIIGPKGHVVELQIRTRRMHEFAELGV

RelCt^Y290A = molecular target: T8, RelCt^Y290A (Chlorobaculum tepidum); assay: ITC
T8 chain: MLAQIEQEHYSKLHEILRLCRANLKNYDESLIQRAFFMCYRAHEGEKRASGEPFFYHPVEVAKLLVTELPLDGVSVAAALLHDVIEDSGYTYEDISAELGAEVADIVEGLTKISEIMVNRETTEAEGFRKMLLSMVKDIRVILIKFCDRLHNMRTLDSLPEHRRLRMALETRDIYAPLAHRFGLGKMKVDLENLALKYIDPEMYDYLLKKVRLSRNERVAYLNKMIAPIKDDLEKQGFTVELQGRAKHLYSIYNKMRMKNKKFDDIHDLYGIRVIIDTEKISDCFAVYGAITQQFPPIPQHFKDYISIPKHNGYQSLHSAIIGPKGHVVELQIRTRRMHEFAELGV

RelCt^D283A [7] = molecular target: T6, RelCt^D283A; assay: ITC
full-length E. coli RelA = molecular target: T9, full-length E. coli RelA (Escherichia coli (K-12 entry), UniProt P0AG20); assay: ITC; nanobody titrated into the RSH enzyme in the cell; Affinity-ITC, 15 °C, 2 μL injections, stirring 75 r.p.m., triplicate; mean KD ± SD; conditions: both partners purified
T9 construct: RelA, long RSH (p)ppGpp synthetase, Escherichia coli, full length; also called RelAEc; source: construct generated by GenScript
T9 sequence (P0AG20 whole entry): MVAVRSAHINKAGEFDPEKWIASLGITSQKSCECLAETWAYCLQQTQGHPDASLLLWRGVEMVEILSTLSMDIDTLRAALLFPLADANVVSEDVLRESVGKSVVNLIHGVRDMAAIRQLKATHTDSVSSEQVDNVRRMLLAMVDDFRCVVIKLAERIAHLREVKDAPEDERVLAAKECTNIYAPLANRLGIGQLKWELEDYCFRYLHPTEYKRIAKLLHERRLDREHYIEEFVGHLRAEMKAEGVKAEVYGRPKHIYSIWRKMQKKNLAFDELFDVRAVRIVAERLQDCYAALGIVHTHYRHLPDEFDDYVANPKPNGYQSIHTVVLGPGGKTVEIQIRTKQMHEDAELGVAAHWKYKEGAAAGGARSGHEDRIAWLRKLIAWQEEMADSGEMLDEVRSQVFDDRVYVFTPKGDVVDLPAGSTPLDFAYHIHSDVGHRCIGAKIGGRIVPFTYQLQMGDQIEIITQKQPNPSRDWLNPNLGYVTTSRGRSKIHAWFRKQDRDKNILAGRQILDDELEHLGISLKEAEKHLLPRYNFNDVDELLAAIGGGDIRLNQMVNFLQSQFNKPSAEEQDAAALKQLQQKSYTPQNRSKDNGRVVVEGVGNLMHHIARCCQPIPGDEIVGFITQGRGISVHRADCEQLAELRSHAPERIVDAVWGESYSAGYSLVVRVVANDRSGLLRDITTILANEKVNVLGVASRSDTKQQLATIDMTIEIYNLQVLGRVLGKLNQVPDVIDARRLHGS

`Nc1ncnc2c1ncn2[C@@H]1O[C@H](COP(=O)(O)CP(=O)(O)OP(=O)(O)O)[C@@H](O)[C@H]1O` [APCPP] showed a Kd (RelCt^NTD) of 37.9 µM.

B1: Nb585 (VHH)
VHH: QVQLQESGGGLVQAGGSLRLSCAASGFTFEDYTIGWFRQAPGKEREGVSLISNSDGFTSYADSVKGQFTISSENAKNTVYLQMDNLKPEDTAVYYCAATEVLAHLMWRPSNWGYWGQGTQVTV
notes: llama nanobody selected against C. tepidum Rel; Expressed from the pMESy4 plasmid; also called nanobody 585; source: E. coli WK6, periplasmic extraction, purified (Ni-NTA IMAC, SEC)
In the case of B1, the “HD (ppGpp hydrolase) activity of RelCt in the presence of Nb585, HPLC” value [1] is reported as 2 fold, the Kd [2] is reported as 0.021 µM and the binding result [3] is reported as “binds”. For the same molecule, the fold drop in affinity against unsubstituted RelCt [4] was 28 fold.

B2: Nb898 (VHH)
VHH: QVQLQESGGGLVQAGGSLRLSCAASGSIESINAMAWYRQAPGKPRELVAVIAKSDGSTTYAVPVKGRFTISRDDAKNTVYLQMNSLKPEDTAIYYCNKIPNFTYWGQGTQVTVSS
notes: llama nanobody selected against C. tepidum Rel; Expressed from the pMESy4 plasmid; source: E. coli WK6, periplasmic extraction, purified (Ni-NTA IMAC, SEC)
For B2, the “SYNTH activity (turnover of ppGpp synthesis) of RelCt in the presence of Nb898, HPLC” value [1] was roughly 11 fold, the Kd [2] was 0.186 µM and the Kd [5] was 0.19 µM.

B3: Nb898 (VHH)
VHH: QVQLQESGGGLVQAGGSLRLSCAASGSIESINAMAWYRQAPGKPRELVAVIAKSDGSTTYAVPVKGRFTISRDDAKNTVYLQMNSLKPEDTAIYYCNKIPNFTYWGQGTQVTVSS
modifications: form not printed for this variant; NTD taken because the methods purify 'RelCtNTD and variants' (full length possible); limits from 9S6K entity
In the case of B3, the Kd (RelCt^K280A) is reported as 2.2 µM, the Kd (RelCt^D283A [6]) is reported as 0.201 µM and the Kd (RelCt^A286K) is reported as 12 µM. The Kd (RelCt^Y290A) was 1.1 µM and the Kd (RelCt^D283A [7]) was 0.2 µM.

B4: Nb94 (VHH)
VHH: QVQLVESGGGMVQPGGSLRLSCAASGFTFSTYSMGWFRQAPGQEREFVAAISWSGDSAYYADSVKGRFTISRDNAKNTVYLQMNSLKFEDTAVYYCNADLDGLGYDYWGQGTQVTVS
notes: llama nanobody selected against E. coli RelA; Expressed from the pMESy4 plasmid; also called nanobody 94; source: E. coli WK6, periplasmic extraction, purified (Ni-NTA IMAC, SEC)
For B4, the Kd (full-length E. coli RelA) was 0.013 µM.

B5: Nb96 (VHH)
VHH: QVQLQESGGGLVQAGGSLRLSCAASGSIFDIKVMAWYRQAPGKSRELVAVHASADDSTTYEKSVKGRFTISRDNAKNTVYLQMNSLKPEDTAIYYCNRIPNFTHWGQGTQVTVS
notes: llama nanobody selected against E. coli RelA; Expressed from the pMESy4 plasmid; also called nanobody 96; source: E. coli WK6, periplasmic extraction, purified (Ni-NTA IMAC, SEC)
With B5 the Kd (full-length E. coli RelA) was 0.08 µM.

B6: Nb120 (VHH)
VHH: QVQLVESGGGLVQPGGSLRLSCAASGTIRSLNAMAWYRQAPGKERELAARISSGGTTTYADSVKGRFTISRDNAKNTLYLQMNSLKPEDTAVYYCKANRFSTYGYRDDIWGQGTQVTVS
notes: control nanobody selected against a different target; also called control Nb120; source: E. coli WK6, periplasmic extraction, purified (Ni-NTA IMAC, SEC)
B6: no binding (full-length E. coli RelA).
